Drawing on publication PMC7693276, this text covers complex I activity (Q reductase activity), residual rate of the mutant for 3 substances.

A value given as a limit tells only on which side of the number the result lay.

The test has as its target central subunit ND3 of Y. lipolytica complex I (Y. lipolytica) (UniProt Q9B6C7).
UniProt Q9B6C7, sequence (Q9B6C7 whole entry, one chain of several): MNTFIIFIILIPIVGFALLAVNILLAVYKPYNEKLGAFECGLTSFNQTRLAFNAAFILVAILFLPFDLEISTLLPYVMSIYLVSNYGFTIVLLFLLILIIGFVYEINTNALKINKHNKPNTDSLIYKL
For the substance “accessory subunit LYRM6 (NDUFA6) mutant F89A of Y. lipolytica complex I (natural protein)”, the complex I activity (Q reductase activity), residual rate of the mutant was less than 25%.

In turn, “accessory subunit LYRM6 (NDUFA6) mutant L42A of Y. lipolytica complex I (natural protein)” had a complex I activity (Q reductase activity), residual rate of the mutant of less than 25%.

Take “accessory subunit LYRM6 (NDUFA6) mutant Y43A of Y. lipolytica complex I (natural protein)”: the complex I activity (Q reductase activity), residual rate of the mutant was less than 25%.
